Experimental findings from patent US20260258115A1 (MAPP BIOPHARMACEUTICAL, published 2026) are described below.

The term Kd denotes the free concentration of one partner at which half of the binding sites on the other are occupied at equilibrium, for simple one-to-one binding. The low end stands for a tighter complex, the high end for a looser complex.

Experiment [1] addresses T1, RSV postfusion F (postF), subtype A (respiratory syncytial virus subtype A, UniProt P03420 26-513).
T1 construct: also called Postfusion subtype A; F deltaFP
Description: BLI, IgG. For orientation: BLI is a label-free optical method that tracks binding on a fibre tip over time.

Experiment [2] addresses T2, RSV postfusion F (postF), subtype B (respiratory syncytial virus subtype B).
T2 construct: also called Postfusion subtype B
Description: BLI, IgG.

For experiment [3], the target named is RSV F on RSV subtype B virus (mKate-RSV B 18537) (respiratory syncytial virus B 18537, UniProt P13843 26-574). Nature of the experiment: cell-based or functional assay.
For experiment [4], the target named is T3, RSV prefusion F (preF), subtype B (respiratory syncytial virus subtype B).
T3 construct: also called Prefusion subtype B
Description: BLI, IgG.

Experiment [5] has as its target RSV fusion glycoprotein (RSV F) on RSV-A2 virus (respiratory syncytial virus, UniProt P03420 26-574). Nature of the experiment: cell-based or functional assay.
For experiment [6], the target named is RSV prefusion F (preF), DS-Cav1 (respiratory syncytial virus, UniProt P03420 26-513). Description: BLI, IgG on sensor, 100 nM antigen.
For experiment [7], the target named is RSV postfusion F (postF), F deltaFP (respiratory syncytial virus, UniProt P03420 26-513). Description: BLI, IgG on sensor, 100 nM antigen.
For experiment [8], the target named is RSV F on RSV subtype A virus (mKate-RSV A2) (respiratory syncytial virus A2, UniProt P03420 26-574). Description: cell-based or functional assay.

B1: ADI-14341 (antibody, V domains shown)
VH: QVQLVQSGGGLVQPGGSLRLSCAGSGFTFSDYEMNWVRQAPGKGLEWLSYISSSGSIIYYADSVKGRFTISRDNAKNSLYLQMNSLRAEDTGLYYCARANHRHYYGMDVWGQGTTVTVSS
VL: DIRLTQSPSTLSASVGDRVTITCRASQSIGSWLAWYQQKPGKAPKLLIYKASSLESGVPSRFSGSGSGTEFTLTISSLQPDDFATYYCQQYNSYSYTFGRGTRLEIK
notes: full-length IgG; also called Ab 9
Consider B1, for which the Kd in experiment [1] stood at 0.713 nM; in experiment [2], 0.612 nM. Moreover, the “Neut IC50 subtype B” value in experiment [3] amounted to 17.5 µg/mL.

B2: ADI-25547 (antibody, V domains shown)
VH: EVQLLESGGGLIQPGGSLRLSCAASGFTVSSNYMSWVRQAPGKGLEWVSVIYSGGSTYYADSVKGRFTISRDNSKNTLYLQMNSLRAEDTAVYYCARGGIADAFDIWGQGTMVTVSS
VL: ETTLTQSPSSVSASVGDRVTITCRASQGISSWLAWYQQKPGKAPKLLIYAASSLQSGVPSRFSGSGSGTDFTLTISSLQPEDFATYYCQQANSFPRTFGQGTKLEIK
notes: full-length IgG
Regarding B2, the Kd in experiment [1] stood at 21.5 nM; in experiment [4], 20.3 nM; in experiment [2] it was 23.1 nM.

B3: ADI-41365 (antibody, V domains shown)
VH: EVQLVESGGGLVKPGGSLRLSCATSGFTFSDYYMTWIRQAPGKGLEWVSYISSSGGYTNYADSVRGRFTISRDNAKRSLYLQMNSLRAEDTAVYYCARVEFSSGDVPSLFDSWGQGTLVTVSS
VL: QSVLTQPPSVSGAPGQRVTISCTGSSSNLGAGYHVHWYQQFPGTAPKPLIYGNTNRPSGVPDRFSGSKSGTSASLAITGVQAEDEADYYCQSYDYSLSGWVFGGGTKLTVL
notes: IgG1
On to B3, for which the “Neutralization IC50 (RSV subtype A)” value in experiment [5] is > 25 µg/mL. Also, the results for the Kd in experiment [6] and in experiment [7] were 2.87 nM and 2.22 nM, respectively.

B4: ADI-19482 (antibody, V domains shown)
VH: QVQLQQWGAGLLKPSETLSLTCGAFHGSFSGYYWSWIRQPPGKGLEWIGEVTHSRSTNYNPSLKSRITISVDTSRNQFSLKLNSVTAADTAVYYCARGSGEWYFDIWGRGTLVTVSS
VL: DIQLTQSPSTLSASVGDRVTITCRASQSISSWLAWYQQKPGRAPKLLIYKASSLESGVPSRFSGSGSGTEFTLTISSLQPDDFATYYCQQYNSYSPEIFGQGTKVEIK
notes: full-length IgG
Turning to B4, the Kd in experiment [1] came to 1.71 nM; in experiment [4], 1.89 nM; in experiment [2], 0.555 nM. Moreover, the “Neut IC50 subtype A” value in experiment [8] turned out to be 1.49 µg/mL. For the same molecule, in experiment [3], the “Neut IC50 subtype B” value stood at 2.24 µg/mL.

B5: ADI-41367 (antibody, V domains shown)
VH: QVQLVQSGAAVKRPGASVKVSCKASGYTFSTNALHWVRQAPGQSLEWMGWINTDNGIPKYSERFHGRVTFTRDTSASTVYMDLSGLRSGDTAVYYCARDGSSGHWLGLSVLDNWGQGTLVTVSS
VL: QSALIQPASVSGSPGQSITISCTGTSDDVGAYNYVSWYQQYPNKAPKLVIYEVSHRPSGVSNRFSGSKSGNTASLTISGLQAEDEADYYCSSYTRSATPYVFGTGTKLTVL
notes: IgG1
As for B5, the “Neutralization IC50 (RSV subtype A)” value in experiment [5] is > 25 µg/mL. Also, the Kd was determined as 17.6 nM in experiment [6] and 4.72 nM in experiment [7].

B6: ADI-19480 (antibody, V domains shown)
VH: EVQLVESGGGLVKPGGSLRLSCAASGFTFSAYSMNWVRQAPGKGLEWVSSISSTTNYISYADSVKGRFTISRDNAKNSLYLQMNSLRAEDTAVYYCARDPKYYGLGTYYKDDYWGQGTLVTVSS
VL: NFMLTQPHSVSESPGKTVTISCTRSGGSIASNYVQWYQQRPGSSPTTVIYEDNQRPSGVPDRFSGSIDSSFNSASLTVSGLKTEDEADYYCQSFDNNNRWVFGGGTKLTVL
notes: full-length IgG
For B6, the Kd in experiment [1] was 0.129 nM; in experiment [4], 0.383 nM; in experiment [2] it was 0.119 nM. Moreover, in experiment [3], the “Neut IC50 subtype B” value is 6.25 µg/mL.

B7: ADI-41360 (antibody, V domains shown)
VH: EVQLVESGGGLVQPGGSLRLSCAASGLTFSRYSMNWVRQAPGKGLEWVSYISSTGRRIQYADSVKGRFTISRDDGKNSLYLQMNSLRAEDTAVYYCARDPLNYHDNTAYWSYWGQGTLVTVSS
VL: NFMLTQPHSVSESPGKTVTISCTRSSGSIASNYVQWYQQRPGSAPTTVIYEDNQRPSGVPDRFSGSIDSSSNSASLTISGLKTEDEADYYCQSYDSSNPLVFGGGTKLTVL
notes: IgG1; also called Ab 657
Take B7: the “Neutralization IC50 (RSV subtype A)” value in experiment [5] is > 25 µg/mL. For the same molecule, the Kd in experiment [6] turned out to be 2.46 nM; in experiment [7] it was 0.358 nM.

B8: ADI-41354 (antibody, V domains shown)
VH: EVQLLESGGGLVQPGGSLRLSCAASGFTFSSYAMSWVRQAPGKGLEWVSGISGSGGTTYYADSVKGRFTISRDNSKNTLYLQMNSLRAEDTAVYYCAKDSPVNINCGGDCDVAYWGQGTLVTVSS
VL: EIVMTQSPSSLSASVGDTVTITCQASQDISYSLNWYQQKPGKAPNLLIFDASHLQTGVPSRFSGGGDGKHFSFTISSLQPEDVATYYCQQYDSLMYTFGQGTKVEIK
notes: IgG1; also called Ab 651
As for B8, the “Neutralization IC50 (RSV subtype A)” value in experiment [5] is > 25 µg/mL. Besides, the results for the Kd in experiment [6] and in experiment [7] were 0.771 nM and 0.429 nM, respectively.

B9: ADI-14365 (antibody, V domains shown)
VH: QVQLVQSGAEVKKPGASVKVSCKVSGYTLTKLSMHWVRQAPGKGLEWMGFFDPEDGDTLYAQKFQGRVTMTEDTSSDTPYMELRSLRSEDTAVYYCASPAAAGQFDYWGQGTLVTVSS
VL: DIVMTQSPSSLSASVGDRVTITCRASQFISSYLHWYQQKTGKAPKLLIYAASSLQSGVPSRFSGSGSGTDFTLTISSLQPEDFATYYCQQSYNTPRTFGQGTKLEIK
notes: full-length IgG; also called Ab 33
Turning to B9, the Kd in experiment [1] was 10.3 nM; in experiment [4] it was 0.962 nM; in experiment [2], 22.3 nM. In addition, in experiment [8], the “Neut IC50 subtype A” value amounted to 0.8 µg/mL. In addition, the “Neut IC50 subtype B” value in experiment [3] is 0.49 µg/mL.

B10: ADI-41366 (antibody, V domains shown)
VH: QVQLVQSGAEVKKPGESLKISCKASGYSSTTYWIGWVRQISGKGLEWMGIIYPGDSDTRYSPSFQGQVTISADRSTKTAYLQWSSLKASDTAMYYCGTSGFGVATPFDYWGQGTLVTVSS
VL: NFMLTQPHSVSESPGKTVTISCTRTSGSIAGNYVHWYQQRPGSAPTTVIYEDNQRPSGVPDRFSGSIDRSSNSASLTISGLKTEDEADYYCQSYASGIHGVFGGGTKVTVL
notes: IgG1
B10: the “Neutralization IC50 (RSV subtype A)” value in experiment [5] is > 25 µg/mL. The figures for the Kd in experiment [6] and in experiment [7] were 1.79 nM and 0.278 nM, respectively.

B11: ADI-14355 (antibody, V domains shown)
VH: EVQLVESGPTLVKPTQTLTLTCTFSGFSLSTSGVGVGWIRQPPGKALEWLAVIYWDDDKTYSPSLKSRLTITKDTSKNQVVLTMTNMNPVDTATYYCARCPAPVYSYGVDVWGQGTTVTVSS
VL: QSALTQPASVSGSPGQSITISCTATSSDFGGYDYVSWYQQHPGEAPKLMISDVTNRPSGVSNRFSGSKSGNTASLTISGLQAEDEADYYCSSYTSYTTPYVFGTGTKLTVL
notes: full-length IgG; also called Ab 23
For B11, the Kd in experiment [1] is 0.48 nM; in experiment [4] it was 1.25 nM; in experiment [2] it was 0.37 nM. Moreover, in experiment [3], the “Neut IC50 subtype B” value stood at 4.72 µg/mL.

B12: ADI-14368 (antibody, V domains shown)
VH: EVQLVESGGGLVKPGGSLRLSCAASGFTFINAWMSWVRQAPGKGLEWVGRIKSKADGGTTDDAAPVKGRFTISRDDSKNTLYLQMNSLKIEDTAVYYCATDVLPLYNWNLGWNFDLWGRGTLVTVSS
VL: SYVLTQPPSVSVAPGKTARITCGGNNIADKSVHWYQQKPGQAPVLVMYYDTDRPSGIPERFSGFNSGNTATLTISRVEAGDEADYYCQVWDSSSDHVVFGGGTKVTVL
notes: full-length IgG; also called Ab 36
With B12, the Kd came out at 24.5 nM in experiment [1], 1.21 nM in experiment [4] and 17.7 nM in experiment [2]. Further, the “Neut IC50 subtype B” value in experiment [3] stood at 1.1 µg/mL.

B13: ADI-41355 (antibody, V domains shown)
VH: EVQLVESGGGLVKPGGSLRLSCTASGFTFSDYYMNWIRQAPGKGLEWVSYISGDGNTIYYTDSVKGRFTISRDNAKNSLFLQMNSLRGEDSAVYYCAGPVRGYTYGIFDYWGQGALVTVSS
VL: YYVLTQPPSVSVAPGQAARITCGGNNIGSRSVNWYQQKPGQAPVVVIYGDSVRPSGIPERFSGSNSGNTATLTFSRVEAGDEADYYCQVWETNSDHPVVFGGGTKVTVL
notes: IgG1
For the molecule B13, in experiment [5], the “Neutralization IC50 (RSV subtype A)” value was > 25 µg/mL. Moreover, the dissociation constant Kd stood at 3.84 nM in experiment [6] and 1.18 nM in experiment [7].

B14: ADI-14350 (antibody, V domains shown)
VH: EVQLVESGPGLVKPSETLSLTCTVSGDSVSNNNYYWNWIRQSPGKGLEWIGYIYYSGSTDYNPSLKSRVTISVDTSKNQFSLNLRSVTAADTAIYFCASAPWGMFTILGVVP
VL: QSVLTQPPSVSGAPGQRVTISCTGSSSNIGAGYDVHWYQQLPGTAPKLLIYGSSNRPSGVPDRFSGSRSGTSASLAITGLQAEDEADYYCQSYDGSLGVYVFATGTKVTVL
notes: full-length IgG; also called Ab 18
Consider B14, for which the values for the Kd in experiment [1], in experiment [4] and in experiment [2] were 0.264 nM, 0.574 nM and 0.148 nM, respectively. In addition, the “Neut IC50 subtype B” value in experiment [3] is 4.82 µg/mL.

B15: ADI-22759 (antibody, V domains shown)
VH: EVQLLESGGGLVKPGGSLRLSCAASGFSFSSYTMNWVRQAPGKGLEWVSSITGGSSYIDYAGSLKGRFTISRDNAKNSLYLQMNSLRVEDTAVYYCARDFPNIAVGGKTLDYWGQGTLVTVSS
VL: QPVLTQPPSVSGAPGQRVTISCTGSSSNIGAGYDVHWFQQLPGTAPKLLIYVNNNRPSGVPDRFSGSKSGTSASLAITGLQAEDEADYYCQSYDRLSAVVFGGGTKVTVL
notes: full-length IgG
For B15, the Kd is 25.3 nM in experiment [1], 0.353 nM in experiment [4] and 10.1 nM in experiment [2]. The “Neut IC50 subtype A” value in experiment [8] is 0.08 µg/mL. Also, in experiment [3], the “Neut IC50 subtype B” value is 0.2 µg/mL.

B16: ADI-14338 (antibody, V domains shown)
VH: EVQLVESGGGVVQPGRPLRLSCAASGFTFSTYDLYWVRQAPGKGLDWVAIISPDGNKKYYADSVKGRFTISRDNSKNTLFLHMNSLRAEDTAVYYCARDYGNYFGSGSYYRYFDLWGRGTLVTVSS
VL: DIQLTQSPSSLSASVGDRVTITCRASQSISSHLNWYQQKPGKAPKLLIYASSSLQSGVPSRFSGSGSGTDFTLTISGLQPEDFATYYCQQSYSTPFTFGPGTKVEIK
notes: full-length IgG; also called Ab 6
Turning to B16, the figures for the Kd in experiment [1], in experiment [4] and in experiment [2] were 5.98 nM, 7.04 nM and 3.14 nM, respectively. Moreover, in experiment [3], the “Neut IC50 subtype B” value stood at 10.2 µg/mL.
